Data on 29 molecules can be found in patent US20250011363A1, “OPTIMIZED SHORTENED PEPTIDE THAT BINDS TO ACETYLCHOLINE RECEPTOR, AND USE THEREOF” (SKINMED CO., LTD., priority 2021, published 2025).

The experiment concerns the target acetylcholine receptor. Briefly: SPR, receptor immobilized, peptide 10 uM. (In SPR one partner is held on a chip, and binding of the other changes the refractive index at the surface.)

For KRRRRK [6mer-2-187], the Binding affinity was 145 RU.
The same measure, in the same setting: the value for KSQRKK [6mer-2-196] was 121 RU.
In turn, KVYLKR [6mer-2-190] returned a Binding affinity of 148 RU.
The molecule RWIYRR [6mer-2-176] displayed a Binding affinity of 144 RU.
For the molecule KWVSRR [6mer-2-184], the Binding affinity was found to be 136 RU.
In the case of RWQQKK [6mer-2-181], the Binding affinity came to 139 RU.
Regarding RQLLKR [6mer-2-191], the Binding affinity worked out at 154 RU.
The same measure, in the same setting: under KLRLRK [6mer-2-194] stands 154 RU.
The molecule RRVYRR [6mer-2-179] returned a Binding affinity of 121 RU.
The molecule RWQCKK [6mer-2-189] yielded a Binding affinity of 121 RU.
Regarding RPNIRK [6mer-2-801], the Binding affinity (RU) was 24 RU.
Consider RLQLRR [6mer-2-183], for which the Binding affinity was 154 RU.
The molecule KQICRK [6mer-2-186] came in with a Binding affinity of 127 RU.
RGQYRR [6mer-2-197]: the Binding affinity came out at 126 RU.
As for RGQYKR [6mer-2-199], the Binding affinity stood at 137 RU.
Turning to KWISKR [6mer-2-193], the Binding affinity was 127 RU.
Still for that read-out and setting: the value for RLRLKR [6mer-2-180] was 142 RU; that for KLFYKK [6mer-2-182] was 139 RU; that for RWFSKK [6mer-2-192] was 133 RU.
Still for that read-out and setting: the value for RGYTKR [6mer-2-188] was 142 RU.
KCSAKK [6mer-2-799] registered a Binding affinity (RU) of 13 RU.
In turn, KSRQKR [6mer-2-195] registered a Binding affinity of 154 RU.
Molecule RTAWKK [6mer-2-800] registered a Binding affinity (RU) of 11 RU.
KLFLRR [6mer-2-201] displayed a Binding affinity of 148 RU.
In turn, KWLLRR [6mer-2-178] displayed a Binding affinity of 133 RU.
Molecule RGYQKR [6mer-2-185] returned a Binding affinity of 137 RU.
For the molecule RSVTKK [6mer-2-177], the Binding affinity is 136 RU.
RGVQRK [6mer-2-200]: the Binding affinity stood at 121 RU.
Turning to KWYYRK [6mer-2-198], the Binding affinity was found to be 139 RU.
